B1: human GrpEL1 (wild type) (natural protein)
chain: CTATKQKNSGQNLEEDMGQSEQKADPPATEKTLLEEKVKLEEQLKETVEKYKRALADTENLRQRSQKLVEEAKLYGIQAFCKDLLEVADVLEKATQCVPKEEIKDDNPHLKNLYEGLVMTEVQIQKVFTKHGLLKLNPVGAKFDPYEHEALFHTPVEGKEPGTVALVSKVGYKLHGRTLRPALVGVVKEA
B2: human GrpEL1 Y173A mutant (natural protein)
chain: CTATKQKNSGQNLEEDMGQSEQKADPPATEKTLLEEKVKLEEQLKETVEKYKRALADTENLRQRSQKLVEEAKLYGIQAFCKDLLEVADVLEKATQCVPKEEIKDDNPHLKNLYEGLVMTEVQIQKVFTKHGLLKLNPVGAKFDPAEHEALFHTPVEGKEPGTVALVSKVGYKLHGRTLRPALVGVVKEA

Experiments:
cryo-EM structure = biological target: the molecule itself; assay: cryo-EM structure
[1] = biological target: human mitochondrial Hsp70 (mortalin) R126W mutant (human, UniProt P38646 47-679, R126W); assay: cryo-EM structure
Sequence of human mitochondrial Hsp70 (mortalin) R126W mutant (P38646 47-679 R126W): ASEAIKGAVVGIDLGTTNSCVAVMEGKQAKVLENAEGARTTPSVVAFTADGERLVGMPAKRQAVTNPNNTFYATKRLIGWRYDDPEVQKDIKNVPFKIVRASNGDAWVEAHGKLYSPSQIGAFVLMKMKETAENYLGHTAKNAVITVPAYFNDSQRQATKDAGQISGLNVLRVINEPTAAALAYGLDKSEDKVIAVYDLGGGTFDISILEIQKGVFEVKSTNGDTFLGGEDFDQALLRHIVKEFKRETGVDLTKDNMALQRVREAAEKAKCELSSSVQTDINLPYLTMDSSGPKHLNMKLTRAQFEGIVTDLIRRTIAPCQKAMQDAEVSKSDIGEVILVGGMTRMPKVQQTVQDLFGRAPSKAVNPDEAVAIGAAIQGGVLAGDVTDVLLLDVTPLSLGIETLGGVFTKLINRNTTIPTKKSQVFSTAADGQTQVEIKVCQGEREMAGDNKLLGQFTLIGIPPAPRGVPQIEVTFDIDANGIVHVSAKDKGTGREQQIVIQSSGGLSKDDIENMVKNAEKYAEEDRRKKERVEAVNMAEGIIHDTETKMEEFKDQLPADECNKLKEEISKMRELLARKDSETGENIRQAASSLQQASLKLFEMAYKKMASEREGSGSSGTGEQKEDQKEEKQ

Binder	stoichiometry N (cryo-EM structure)	binding result [1]
B1	2	
B2		binds

From paper PMC11118385 (bioRxiv, 2024)
